{"source": "the DeepSol protein solubility set"}
{"test": "soluble on expression in E. coli; label from the status in PepcDB or PDB records"}
{"sequence": "MSVDPACPQSLPCFEASDCKESSPMPVICGPEENYPSLQMSSAEMPHTETVSPLPSSMDLLIQDSPDSSTSPKGKQPTSAENSVAKKEDKVPVKKQKTRTVFSSTQLCVLNDRFQRQKYLSLQQMQELSNILNLSYKQVKTWFQNQRMKSKRWQKNNWPKNSNGVTQKASAPTYPSLYSSYHQGCLVNPTGNLPMWSNQTWNNSTWSNQTQNIQSWSNHSWNTQTWCTQSWNNQAWNSPFYNCGEESLQSCMHFQPNSPASDLEAALEAAGEGLNVIQQTTRYFSTPQTMDLFLNYSMNMQPEDV", "soluble on expression in E. coli": "soluble"}
{"sequence": "GYIVDMSKWNGSPDWDTAKGQLDLVIARVQDGSNYVDPVYKDYVAAMKARNIPFGSYAFCRFVSVEDAKVEARDFWNRGDKDSLFWVADVEVTTMSDMRAGTQAFIDELYRLGAKKVGLYVGHHKYEEFGAAQIKCDFTWIPRYGAKPAYPCDLWQYDEYGQVPGIGKCDLNRLNGDKSLDWFTGKGEE", "soluble on expression in E. coli": "soluble"}
{"sequence": "MTVSLLDSSTRYHAVTALNGNVLFSGARRPMPTVMLLHTPPPEFIRSQIQQMVVDYVTDISMVAIAPGNPLYNLYQYGVGYEVHLYLNAMNGSQSLTVELIVALDDEDPETVLGFLLYLPVQDDPQACAVAYMAVLESHRCQGIARLMLDRMVSRYAHAELYCTVAKVPYFQAMGFQVLGARGPQVIMNTRDHGTDGLLAVMDIAPIYSSVEVRQIHAYLLKQHGNTAMLDAEKQRDHHLDRMTREARAFAEQHLENGDSVHGVSATVRLH", "soluble on expression in E. coli": "not soluble"}
{"sequence": "MGHHHHHHSHMEEAGSVALEELVEKEKDRFFSGVDYIVISDNLWISQRKPAITYGTRGNSYFMVEVKCRDQDFHSGTFGGILHEPMADLVALLGSLVDSSGHILVPGIYDEVVPLTEEEINTYKAIHLDLEEYRNSSRVEKFLFDTKEEILMHLWRYPSLSIHGIEGAFDEPGTKTVIPGRVIGKFSIRLVPHMNVSAVEKQVTRHLEDVFSKRNSSNKMVVSMTLGLHPWIANIDDTQYLAAKRAIRTVFGTEPDMIRDGSTIPIAKMFQEIVHKSVVLIPLGAVDDGEHSQNEKINRWNYIEGTKLFAAFFLEMAQLH", "soluble on expression in E. coli": "not soluble"}
{"sequence": "MGSDKIHHHHHHMKTSLGPIQYCWPKEKVVEFYEAVAQSSVPLVYLGETVCSRRRELKFSDYLALAQMLKAAGKEVVLSTLTLIEAQSEFLELKKQVENGEFTIEANDVGAIYLAKEHGIPFVCGPSINSYNAATLKKFASWGMQRFVMPLELSKAWLTQVLDDLAPRQVEVEVFGHGFMPLAHSARCFTARHKGLTKDKCQTICIENPEGLLVQTQEDQPLLRLNGIQTQSANYMDLCDQQTQMQALGVDYFRISPSSLASIALADKLPAKSASHDRQCNGYWHQLPGLALS", "soluble on expression in E. coli": "not soluble"}
{"sequence": "RQLALEAKGETPSAVTRLSVVAKSEPQDEQSRSQSARRIILSRLKAGEVDLLEEELGHLTTLTDVVKGADSLSAILPGDIAEDDITAVLCFVIEADQITFETVEVSPKISTPPVLKLAAEQAPTGRVEREKTTR", "soluble on expression in E. coli": "soluble"}
{"sequence": "MVEKEEAGGGISEEEAAQYDRQIRLWGLEAQKRLRASRVLLVGLKGLGAEIAKNLILAGVKGLTMLDHEQVTPEDPGAQFLIRTGSVGRNRAEASLERAQNLNPMVDVKVDTEDIEKKPESFFTQFDAVCLTCCSRDVIVKVDQICHKNSIKFFTGDVFGYHGYTFANLGEHEFVEEKTKVAKVSQGVEDGPDTKRAKLDSSETTMVKKKVVFCPVKEALEVDWSSEKAKAALKRTTSDYFLLQVLLKFRTDKGRDPSSDTYEEDSELLLQIRNDVLDSLGISPDLLPEDFVRYCFSEMAPVCAVVGGILAQEIVKALSQRDPPHNNFFFFDGMKGNGIVECLGPK", "soluble on expression in E. coli": "soluble"}
